# Laboratory results taken from paper PMC5645147, “Binding of a C-type lectin’s coiled-coil domain to the Domeless receptor directly activates the JAK/STAT pathway in the shrimp immune response to bacterial infection”.
# B1: CruI-1 promoter STAT probe (dsDNA)
# DNA 1: GCGTAAGGTTTTCTTGGAATA
# DNA 2: TATTCCAAGAAAACCTTACGC
# Biological target: T1, native STAT, LPS-challenged shrimp (Marsupenaeus japonicus (kuruma shrimp), UniProt D0VYJ1 1-801)
# T1 sequence: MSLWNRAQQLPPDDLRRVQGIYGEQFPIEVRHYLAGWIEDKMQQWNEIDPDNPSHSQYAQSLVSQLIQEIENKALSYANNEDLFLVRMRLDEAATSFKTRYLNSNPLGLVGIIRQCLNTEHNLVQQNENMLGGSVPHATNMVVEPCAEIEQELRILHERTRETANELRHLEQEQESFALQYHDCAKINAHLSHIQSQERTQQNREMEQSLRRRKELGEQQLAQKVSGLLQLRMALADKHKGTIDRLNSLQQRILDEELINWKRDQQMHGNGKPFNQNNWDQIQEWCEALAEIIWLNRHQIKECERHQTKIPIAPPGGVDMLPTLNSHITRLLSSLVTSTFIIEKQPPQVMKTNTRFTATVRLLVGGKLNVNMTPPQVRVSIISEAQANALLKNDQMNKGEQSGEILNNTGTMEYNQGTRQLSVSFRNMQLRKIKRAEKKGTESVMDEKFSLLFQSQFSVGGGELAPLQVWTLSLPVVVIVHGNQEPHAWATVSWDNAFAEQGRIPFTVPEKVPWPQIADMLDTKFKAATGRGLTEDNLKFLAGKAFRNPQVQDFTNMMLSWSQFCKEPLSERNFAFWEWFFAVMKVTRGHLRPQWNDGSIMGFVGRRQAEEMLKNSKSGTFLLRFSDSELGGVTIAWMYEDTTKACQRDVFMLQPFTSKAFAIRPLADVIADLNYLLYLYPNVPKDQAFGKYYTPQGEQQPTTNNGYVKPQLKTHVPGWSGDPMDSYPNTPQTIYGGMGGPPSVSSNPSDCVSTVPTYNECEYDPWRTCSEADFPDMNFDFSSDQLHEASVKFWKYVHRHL
# Assay: EMSA; STAT from LPS-injected shrimp; binding increased; 2 ug protein, 20 fmol Dig-probe, Beyotime EMSA binding buffer (from 5x; composition and pH not stated), 20 min with probe, room temperature (stated for competition); 6% PAGE, 0.5x TBE
# Conditions: chain copies: 2, blunt
binder,measurement,value
B1,binding result,binds
